For one series, the system named is GAGE12I. Briefly: EMSA. The note with it: EMSA: 20 mM Tris pH 7.4, 50 mM NaCl, 1 mM DTT, 5 min or as indicated, 20 C, 1 pg/ul DNA. Calf thymus DNA-cellulose pull-downs (P1, P2; undefined DNA, not …). (In general: In EMSA bound probe runs differently from free probe, usually more slowly.)
For series [1], the target named is GAGE12I (Lumier fusion, HEK293) (human). The experiment in a line: pull-down; Lumier (luminescence-based mammalian interactome mapping): protein A and Renilla luciferase fusions co-expressed in HEK293, lysed in 20 mM Tris-HCl pH 7.5, 250 mM NaCl, 1% Triton X-100, 10 mM EDTA, 10 mM DTT with Benzonase; protein A fusions isolated on IgG-coated magnetic beads …; luciferase bound/input normalised to a protein A dimer control and given as Z scores; both orientations.
Sequence of GAGE12I (Lumier fusion, HEK293) (human) (A1L429 whole entry, the tested form may be a part): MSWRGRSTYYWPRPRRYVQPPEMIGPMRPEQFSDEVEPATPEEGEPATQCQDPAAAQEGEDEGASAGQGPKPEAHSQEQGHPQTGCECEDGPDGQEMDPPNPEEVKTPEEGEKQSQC

As to pUC19 90-bp EcoRI-PvuII fragment, in the series with GAGE12I, the K half was < 7.3 µM.
As to “full-length GCL (Lumier fusion, HEK293) (from UniProt Q96IK5 1-515) (natural protein)”, the Z score in series [1] was in the range of 3.4 to 5.3.
